Here are results for 2 molecules from paper PMC9135769, “A topological refactoring design strategy yields highly stable granulopoietic proteins” (Nature Communications, 2022).

The target of assay [1] is G-CSFR (Homo sapiens) (UniProt Q99062). Description: SPR. Conditions: cited from earlier work.
The target is the same in assay [2]. Description: ITC. To be noted: cited from earlier work.
Assay [3] addresses T1, G-CSF Receptor (G-CSFR) (human, UniProt Q99062 25-333).
T1 construct: G-CSF receptor (G-CSFR), human, bought recombinant protein; In the functional rows the receptor is the one on the cells of the test (murine NFS-60 or human CD34+ HSPCs); also called human G-CSFR; human G-CSF receptor; source: bought: R&D systems 381-GR-050/CF
T1 sequence: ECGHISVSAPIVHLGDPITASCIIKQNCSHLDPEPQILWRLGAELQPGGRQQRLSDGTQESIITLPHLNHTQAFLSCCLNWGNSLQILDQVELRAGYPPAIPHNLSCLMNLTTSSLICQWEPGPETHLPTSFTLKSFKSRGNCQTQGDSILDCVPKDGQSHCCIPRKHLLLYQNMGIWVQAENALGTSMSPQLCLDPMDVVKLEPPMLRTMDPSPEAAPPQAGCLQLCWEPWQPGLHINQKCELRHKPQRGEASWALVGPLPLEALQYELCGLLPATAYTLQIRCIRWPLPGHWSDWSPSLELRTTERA
Description: SPR; G-CSFR amine-coupled on a CM5 chip (Biacore X100), analytes flowed over, multi-cycle kinetics, 25 °C, 10 mM HEPES pH 7.4, 150 mM NaCl, 3.4 mM EDTA, 0.005% Tween-20; 1:1 model, linear fit of kobs against concentration; legend speaks of apparent affinity for the bivalent ligands. To be noted: both partners purified. On the technique in general: Surface plasmon resonance follows binding to a sensor surface in real time, without labels.

In general, koff refers to a measure of how fast the partners let go of each other. Broadly, the kon is the rate constant with which the complex forms.

For the molecule G-CSF (from UniProt P09919), the Kd in assay [1] was 0.2 nM; in assay [2] it was 1.4 nM.

B1: Recombinant human G-CSF (rhG-CSF), USP RS Filgrastim (ligand, UniProt P09919-2 31-204, looked up)
chain: TPLGPASSLPQSFLLKCLEQVRKIQGDGAALQEKLCATYKLCHPEELVLLGHSLGIPWAPLSSCPSQALQLAGCLSQLHSGLFLYQGLLQALEGISPELGPTLDTLQLDVADFATTIWQQMEELGMAPALQPTQGAMPAFASAFQRRAGGVLVASHLQSFLEVSYRVLRHLAQP
notes: granulocyte-colony stimulating factor (G-CSF), human, recombinant; printed length 174 amino acids; also called granulocyte-colony stimulating factor; wild-type G-CSF; source: bought: USP RS Filgrastim, Sigma-Aldrich 1270435
Turning to B1, in assay [3], the Kd is 1.1 nM, the koff came out at 0.00049 s⁻¹ and the kon worked out at 300000 M⁻¹ s⁻¹.
